We go through four molecules from paper PMC6765112, “Specificity of MYB interactions relies on motifs in ordered and disordered contexts” (Nucleic Acids Research, 2019).

Test [1] relates to MYC3. Put plainly: Split-ubiquitin assay, MYC3 as bait. The class given is cell-based, Arabidopsis thaliana. The following applies: yeast, SD-AHLW growth. As for the experimental part: (§1) The rapamycin-compatible yeast strain NMY51 TOR1-1 Δfpr1 ([35]) was transformed according to DUALhunter™ kit instructions (Dualsystems biotech). Briefly, overnight 2×YPAD cultures were diluted to OD600 = 0.2, and incubated at 30°C, 150 RPM for 4–6 h in 2×YPAD, before harvesting the cells by centrifugation at 700 g for 5 min. The cells were washed with H2O, then 0.1 M LiOAc, before resuspending in 0.1 M LiOAc with 15% glycerol. The competent cells were then aliquoted and stored at −80°C until transformation. For double transformation with bait and prey plasmids, competent cells were thawed on ice, and mixed with transformation mix (240 μl 50% PEG-3350, 35 μl 1 M LiOAc and 25 μl 2 mg/ml ssDNA per transformation) and 200 ng of each plasmid, before being exposed to a 42°C heat shock in a water bath for 45 min. The cells were then chilled on ice for a few minutes, sedimented by centrifugation (3000 g, 1 min), resuspended in sterile H2O, plated on SD-LW plates and grown at 30°C for 2–3 days.
(§2) For drop tests, cells from three individual colonies of each bait/prey combination were grown overnight in liquid SD-LW media. Next day, culture densities were normalized to OD600 = 0.05, dilution series (OD600 = 0.05, OD600 = 0.005, OD600 = 0.0005 and OD600 = 0.00005) were spotted on square plates (SD-LW, SD-AHLW and SD-AHLW+Rapa) and grown for 2 days at 30°C before taking pictures.
(§3) To identify interaction sites mediating specific MYB–MYC complex formation, we selected two TFs from each family. These were MYB28 and MYB29 from MYB subgroup 12, and two of their partner bHLH TFs, MYC3 and MYC4. To define the region mediating the interactions we applied a chemically inducible dimerization split-ubiquitin system ([35]). […] This is used as an in-built positive control for correct expression and functionality of the prey fusion protein and thereby reduces the incidence of false negatives.

Test [2] concerns MYC4. Put plainly: Split-ubiquitin assay, MYC4 as bait. The test is classed as cell-based, Arabidopsis thaliana. The following applies: yeast, SD-AHLW growth. As for the experimental part:
as §1, §2, §3

B1: L190A: mutated MYB29 (AAs 120-222); MIM sequence - S TS KL ANK VA ARA SS - (protein)
chain: GIDPVTHKPLAYDSNPDEQSQSGSISPKSLPPSSSKNVPEITSSDETPKYDASLSSKKRCFKRSSSTSKLANKVAARASSMGTILGASIEGTLISSTPLSSCL
modifications: left off: NubG and FRB (from the vector pFRB), end not stated, kept
As for B1, in test [1], the “interaction with MYC3 (in words)” value is “abolished the interaction”. Further, the “interaction with MYC4 (in words)” value in test [2] is reported as “abolished the interaction”.

B2: A194L: mutated MYB29 (AAs 120-222); MIM sequence - S TS KL LNK VL ARA SS - (protein)
chain: GIDPVTHKPLAYDSNPDEQSQSGSISPKSLPPSSSKNVPEITSSDETPKYDASLSSKKRCFKRSSSTSKLLNKVLARASSMGTILGASIEGTLISSTPLSSCL
modifications: left off: NubG and FRB (from the vector pFRB), end not stated, kept
B2: the “interaction with MYC3 (in words)” value in test [1] is “abolished the interaction with both MYC3 and MYC4”. Moreover, the “interaction with MYC4 (in words)” value in test [2] was “abolished the interaction with both MYC3 and MYC4”.

B3: A194G: mutated MYB29 (AAs 120-222); MIM sequence - S TS KL LNK VG A RA SS - (protein)
chain: GIDPVTHKPLAYDSNPDEQSQSGSISPKSLPPSSSKNVPEITSSDETPKYDASLSSKKRCFKRSSSTSKLLNKVGARASSMGTILGASIEGTLISSTPLSSCL
modifications: left off: NubG and FRB (from the vector pFRB), end not stated, kept
Consider B3, for which, in test [1], the “interaction with MYC3 (in words)” value is reported as “did not abolish the interaction”. Further, in test [2], the “interaction with MYC4 (in words)” value is “did not abolish the interaction”.

B4: N191A: mutated MYB29 (AAs 120-222); MIM sequence - S TS KL LAK VA ARA SS - (protein)
chain: GIDPVTHKPLAYDSNPDEQSQSGSISPKSLPPSSSKNVPEITSSDETPKYDASLSSKKRCFKRSSSTSKLLAKVAARASSMGTILGASIEGTLISSTPLSSCL
modifications: left off: NubG and FRB (from the vector pFRB), end not stated, kept
Consider B4, for which, in test [1], the “interaction with MYC3 (in words)” value is recorded as “abolished the interaction”. Further, in test [2], the “interaction with MYC4 (in words)” value is reported as “abolished the interaction”.
